± gives the uncertainty stated by the source.

This series is described as follows: amyloid nucleation score (Sup35N fusion, yeast selection) (log enrichment); library NNK2; higher = more nucleation; inactive = no reads after selection. In a few lines:
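After 24 hours of induction with 100 μM copper sulfate, psi-negative yeast expressing peptides of 20 random codons fused to Sup35N were grown for 7 days at 30°C on medium lacking adenine and uracil. Input and output plasmid inserts were sequenced with Illumina, and sequences with under 100 input reads were discarded. Scores for nucleation are the DiMSum log enrichment of output over input reads, centred on the mode score of non-aggregating sequences.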
As for GKLHIRIWQDSVWLGDLRL, the amyloid nucleation score worked out at 3.82 ± 0.063.

Take GKLSGTPWTLSGATKRALLY: the amyloid nucleation score was -0.494 ± 0.64. With GKQYPFHFI the figure was -0.583 ± 1.1; with GKRVLRWTNWMAR, 1.83 ± 0.29; with GLGRKYNMRRRLKLVFWRSD, 4.23 ± 0.084. GLHLHSVAEYVCWGTPLSRL showed an amyloid nucleation score of 0.119 ± 0.76. The value for GLISDYFSPSCIVYAGVR was “inactive”; that for GLLEAWEDFLGRMHGVGLVC was 4.15 ± 0.051. With GLLPVGSVGVRVALVVMRVQ the figure was 1.35 ± 0.36. The value for GLQYQYSGLWVR was 0.236 ± 0.44; that for GLRRRMCCRRCWLEGVDFQD was “inactive”.

In turn, GLRSIGLGVQSFRSYQFSRI yielded an amyloid nucleation score of -0.415 ± 0.45.

For GLRTLERSDVSVGVRRYLG, the amyloid nucleation score turned out to be 1.33 ± 0.51. The value for GLSDQKGTVALRFFYFDFYS was 2.73 ± 0.074; that for GLSELMKGLLTN was 0.08 ± 0.79. Turning to GLSMCIWCRSIQMTTLGSRY, the amyloid nucleation score was 0.365 ± 0.36.

As for GLSNLR, the amyloid nucleation score is -0.114 ± 1. In the case of GLSWPTNRCRRALMESTSAP, the amyloid nucleation score result was “inactive”. Turning to GLTASL, the amyloid nucleation score was -0.375 ± 0.49. The substance GLVRERIDTAHPRSTSYC registered an amyloid nucleation score of 0.561 ± 0.62. As for GLWDSRMAFSRTS, the amyloid nucleation score is 3.57 ± 0.078. GLWRLYWILFHF returned an amyloid nucleation score of -1.17 ± 0.78. With GLYANFVPAIRTDGRGWRFW the figure was -0.352 ± 0.48. With GLYNFLLSGQ, the amyloid nucleation score entry is “inactive”. Regarding GMIFFHGNSLGVTDDSHK, the amyloid nucleation score amounted to 0.811 ± 0.82. Substance GMKSIDVL showed an amyloid nucleation score of -1.21 ± 0.36. Turning to GMLSTTALNLLNMVICYYSL, the amyloid nucleation score is 5.447 ± 0.035. GMPNFSVFVWAF: the amyloid nucleation score came out at 2.59 ± 0.082. With GMSYTLYQSWTVDHTVILPP the figure was 3.99 ± 0.12; with GMVFRRWREMYSSFVDRTLR, 0.799 ± 0.51; with GNESDVSTIYKGDIPLLGVL, -1.05 ± 0.55. On to GNFDWAFHYGVFVHLCHKMG, for which the amyloid nucleation score entry was “inactive”. The value for GNGWAMSVTKR was 0.571 ± 0.64; that for GNIDGLLQFEYRW was 0.552 ± 0.66; that for GNIGYCKRSFSGLQLVGCAR was -0.464 ± 0.78. With GNRDMGVVNGRYVTAVTS the figure was 0.422 ± 0.26. The value for GNRLRIKLL was -0.2 ± 0.27; that for GNRVWERTNFELSSDRESGV was 0.832 ± 0.27; that for GNVITDGESMMDCKGTMRSC was 0.584 ± 0.21. With GPCSSGSDSTCQMPCLAWPG, the amyloid nucleation score is 0.74 ± 0.51. With GPIYLWFSFKSRCQSSCHDV, the amyloid nucleation score is -0.866 ± 0.48. As for GPSDLIFLPGLMAPRS, the amyloid nucleation score was -0.373 ± 1.1.

GQCPIHMCGRNTYMK gave an amyloid nucleation score of 0.05 ± 0.32. With GQELSGNIFIPDHLGLLSCS the figure was 0.744 ± 0.8. As for GQYLLSTIIVFGCSMAGFAA, the amyloid nucleation score worked out at 2.52 ± 0.12. With GRCILGCHPATRTGMLRYFE the figure was -0.087 ± 1; with GRCTGLLCLALVVIYQ, 0.358 ± 0.39. For GRDFCFEVSHYVVMFAFLRD, the amyloid nucleation score came out at 0.114 ± 0.63. With GRFVSVKHYS the entry was “inactive”; with GRILNFMSHDWGDHMICGKK, 0.65 ± 0.66. The value for GRLGSAPQKR was 0.686 ± 0.32; that for GRLRDCRDEHNSNPTLRFTS was 0.449 ± 0.16. The value for GRNFYESNCAMFDRYSCFGS was 0.255 ± 1.1; that for GRPAAHAPSHPTRSVLGMS was 0.763 ± 0.47. GRRDNMVRCKRLCRWRVWTA yielded an amyloid nucleation score of 0.157 ± 0.55. The value for GRRVPGWNQSYL was -0.274 ± 0.76; that for GRRYSRTVEFVTF was 0.692 ± 0.29. With GRYHIDSRKGKSNKSRGNIY the entry was “inactive”; with GRYLVSKTCFFYLMGNEVN, -0.307 ± 0.56. GRYNLLNKGNSAGVWCGLFS had an amyloid nucleation score of -0.324 ± 1.1. The value for GSCNASVPVQV was 0.057 ± 0.76; that for GSESLNV was 0.887 ± 0.57. With GSLDWRMELWWKFFLHHQPL the figure was 0.759 ± 0.74. The value for GSLMRFDSWLGGTIASS was 0.402 ± 0.66. GSSKFPDFSISLMYELFDI gave an amyloid nucleation score of -0.91 ± 1.1. With GSSTSGVCTGVRERAVDCGV, the amyloid nucleation score was 0.007 ± 0.76. With GSSVIFSALRMYVSLFLYLV the entry was “inactive”; with GSVGFVQYAVGNSMTSGIMV, -0.307 ± 0.2. With GSVTTCSAWYKRRNLDICHR the figure was -0.277 ± 0.22. Regarding GSVVHLQSCNISLIAYGLHG, the amyloid nucleation score worked out at 8.298 ± 0.054. With GSVVHQEFFSPSKGFVSSQF the figure was -1.4 ± 0.55; with GTCLHCGEIRS, -0.293 ± 0.29.

Substance GTDSL yielded an amyloid nucleation score of -0.226 ± 1.1. In the case of GTDTTIDLNSYGHYYSLCVR, the amyloid nucleation score was found to be 0.334 ± 0.65. As to GTMCFFMCTDYLYGSQTRLG, the amyloid nucleation score was -0.054 ± 1.1. The value for GTTSCISDLQWMGYIVKL was 0.039 ± 0.46; that for GTVLMRFGGCLFFVMSRQNC was 1.89 ± 0.42; that for GVAGFDTSDNETG was 0.543 ± 0.33.

Substance GVCRDNILRENFGGWSTSRS came in with an amyloid nucleation score of 0.15 ± 0.46.

Consider GVDFKVVTKSWIIYNYIIGM, for which the amyloid nucleation score came out at 3.07 ± 0.064. Regarding GVDKKVSSTECIETVSCFIT, the amyloid nucleation score entry is “inactive”. Take GVGVLGVLNYVCWLMQCCGL: the amyloid nucleation score is 0.987 ± 0.22.

GVGYPVFYWKVSMYSRDSDH registered an amyloid nucleation score of 3.38 ± 0.067. With GVKAASGSSPKRGFYDWVKH the figure was 0.307 ± 0.64. As for GVLNAVHCQVYWL, the amyloid nucleation score is 7.869 ± 0.035. GVLRENGN returned an amyloid nucleation score of 0.284 ± 1.1.

GVMYSLFRNSSWGGHIMSGK had an amyloid nucleation score of 0.818 ± 0.67. With GVNKVT the figure was 0.115 ± 1; with GVQETSYVALCSSLVTRTFV, 1.16 ± 0.44; with GVSVSSLSACPKEDFGSFSE, 0.051 ± 0.63. With GVVARSIVAGNLALIIRRRM the figure was 0.253 ± 0.42. The value for GVVISCWRLWWDTDMMHR was 0.007 ± 0.24. In turn, GVWIFKYCRNNWFGFLIISA had an amyloid nucleation score of 3.33 ± 0.1. With GVYICQFIAVISLSAQSLWY the figure was -0.97 ± 1.1; with GWGFFIDSYQHGLLM, -1.27 ± 0.54; with GWMCMPAQGAKDNHLLGYLM, -0.533 ± 0.55. Turning to GWSITGSWFHNMAILLICFR, the amyloid nucleation score is 3.38 ± 0.075. The value for GYASTDEVMTLRMYLTSIYT was -0.187 ± 0.55. With GYDLYLTEWRSVFTAVIANE the figure was -0.055 ± 1.1.

In the case of GYDNTAWELTGGVD, the amyloid nucleation score was -0.311 ± 0.3. GYEWSSVSEQGC: the amyloid nucleation score was determined as 1.27 ± 0.52.

GYGDGILVSFSC displayed an amyloid nucleation score of -0.986 ± 0.76.

GYIMIPRYPPSKHLCF had an amyloid nucleation score of -0.545 ± 0.41. Substance GYMRSLGHYSADVMEYLYNW gave an amyloid nucleation score of 0.052 ± 0.45. With GYNTRKYWISGYNTTDSPGK the figure was -1.13 ± 0.35; with GYSLYVYIMDFFTWGNRVII, 2.02 ± 0.19. For the substance GYTTMRKCFAQVEFRTPADT, the amyloid nucleation score result is “inactive”. GYVFHYVSIQL gave an amyloid nucleation score of 7.957 ± 0.027. As for GYVSRDSFVLYWPSRNDCLA, the amyloid nucleation score worked out at 0.276 ± 0.22. With GYYAPIPLKCVDSEASLRYR the figure was 0.308 ± 0.36; with HASNH, -0.689 ± 0.42; with HAVWSVFCEFIVRQCYGLYF, -1.37 ± 0.41.

In the case of HCGTHVYYGAIWV, the amyloid nucleation score was -0.483 ± 0.27. The value for HCGYEAIILWGVRFCGILQR was -0.357 ± 1.1; that for HCKLVFRGVMTESHSSACGG was 2.82 ± 0.071; that for HCLGRLVASWNPQWEFHRRT was 0.103 ± 0.38. With HCSDFDLVSAKWSSQWARNG the figure was 1.13 ± 0.4.

On to HCSQNYMVTRKIFSLWIPYV, for which the amyloid nucleation score result was “inactive”. With HCSVSLTFFVLQTPL the figure was 4.79 ± 0.069; with HCTDGFLMAYVSFSRGMIIM, “inactive”.

In turn, HCVDLLREMQ registered an amyloid nucleation score of 0.621 ± 0.43. HCVIQSSYLRD had an amyloid nucleation score of -0.337 ± 0.54.

As for HCYSRPFESSSFMNSVSLKY, the amyloid nucleation score was -0.149 ± 0.76. With HDLKLV the figure was 0.266 ± 0.41; with HDMRHYKGSPYYLNYWYGDG, -0.623 ± 0.55; with HDQGSTMFCGRNAATLSQCW, 1.54 ± 0.25. In turn, HEAYLPRLNDVTTSPSPCPY showed an amyloid nucleation score of 0.487 ± 0.62. With HEHSDVRKKVGWMAFWR the figure was 4.42 ± 0.06; with HEVLTVHNKAFRKYLSCIFR, “inactive”; with HFCYYMCFEWLDTIVAYYLG, -0.337 ± 1.1. With HFFSSSSMRMYTSYSPLVMW the figure was 0.215 ± 0.42.

The substance HFKSSKECSKWVGICREEGR displayed an amyloid nucleation score of 0.338 ± 0.46. With HFLVHFVFDLIRCVLAFVYC the figure was 0.61 ± 0.12.

HFRVMHSFQGQYKVIFK: the amyloid nucleation score amounted to 2.73 ± 0.098.

For the substance HFSDIRAFCFPCNPIMRVMK, the amyloid nucleation score was -0.406 ± 0.56. Substance HGAVRSLSGGHIDRELVCD returned an amyloid nucleation score of 0.566 ± 0.74. With HGGFRDFQSLSVPIRYDLYD the figure was 1.14 ± 0.2; with HGGSVWRRHSVFNAICISSS, 1.11 ± 0.18.
